B1: unlabelled HRE competitor DNA (dsDNA)
DNA 1: GGCTGGGCCTACGTGCTGTCTCACACAGCC
DNA 2: GGCTGTGTGAGACAGCACGTAGGCCCAGCC
B2: EMSA HRE probe (human EPO enhancer) (dsDNA)
DNA 1: B1 DNA 1
DNA 2: B1 DNA 2

How the values were obtained:
[1] = molecular target: T1, HIF-1α 1-350;HIF-1β (ARNT) 1-474 (human?;human?, UniProt Q16665;P27540 1-350;1-474, |); assay: competition; unlabelled DNA titrated against labelled probe N1 (EMSA); EMSA: Tris-HCl (concentration and pH not in material), 50 mM KCl, 50 mM NaCl, 5 mM DTT, 1 mM MgCl2, 1 mM EDTA, 10% glycerol, 5 µg BSA, 25 ng poly dI-dC; 30 min
[2] = molecular target: T1, HIF-1α 1-350;HIF-1β (ARNT) 1-474; assay: EMSA; EMSA: Tris-HCl (concentration and pH not in material), 50 mM KCl, 50 mM NaCl, 5 mM DTT, 1 mM MgCl2, 1 mM EDTA, 10% glycerol, 5 µg BSA, 25 ng poly dI-dC; 30 min
[3] = molecular target: HIF-2α (EPAS1) 1-351;HIF-1β (ARNT) 1-474 (human?;human?, UniProt Q99814;P27540 1-351;1-474, |); assay: as above

Binder | binding result [1] | binding result [2] | binding result [3]
B1 | binds |  | 
B2 |  | binds | binds
